Measured values taken from the supplement of paper PMC10899765.

Experiments:
Details in all cases: 20 nM; 72 h
[1] = system: MCF10A; test: percent viability (nuclei count relative to siNT); higher = more viable cells
Method: (§1)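 After 72 h, cells were fixed and stained with Hoechst and anti-fibrillarin, and nucleoli per nucleus were counted with CellProfiler. Values are plate-adjusted percent effect for the one-nucleolus and 5+ nucleoli phenotypes, normalised to siNT (0%) and to the positive controls siNOL11 or siKIF11 (100%), as the mean of biological triplicates. Percent viability is the nuclei count relative to siNT.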

[2] = system: MCF10A; test: one-nucleolus phenotype percent effect (relative to siNT 0% and siNOL11 100%); higher = more cells with one nucleolus (ribosome biogenesis inhibition)
Method: as §1

[3] = system: MCF10A; test: 5+ nucleoli phenotype percent effect (relative to siNT 0% and siKIF11 100%); higher = more cells with five or more nucleoli
Method: as §1

Row | Sequence | percent viability [1] [%] | one-nucleolus phenotype percent effect [2] [%] | 5+ nucleoli phenotype percent effect [3] [%]
1 | AGCCCGCCCCAGCCGAGGUUCU [hsa-miR-4707-3p] | 42.9 | 19.7 | -25.2
2 | AGCCGCGGGGAUCGCCGAGGG [hsa-miR-3648] | 88.3 | -17.8 | 19.7
3 | AGCCGCUCUUCUCCCUGCCCACA [hsa-miR-6743-3p] | 58 | -1.42 | 35.5
4 | AGCCUGGAAGCUGGAGCCUGCAGU [hsa-miR-1254] | 50.1 | 10.5 | -6.84
5 | AGCCUGUGCUUGUCCCUGCAG [hsa-miR-6811-3p] | 11.8 | 24.6 | -10.2
6 | AGCCUUCCAGGAGAAAUGGAGA [hsa-miR-5581-5p] | 14.3 | 20.5 | -16.7
7 | AGCGAGGUUGCCCUUUGUAUAU [hsa-miR-381-5p] | 52.5 | -12.7 | 0.715
8 | AGCGCGGGCUGAGCGCUGCCAGUC [hsa-miR-2277-5p] | 31.3 | 25.5 | -22.4
9 | AGCGGGGAGGAAGUGGGCGCUGCUU [hsa-miR-4706] | 32.7 | -0.404 | -0.458
10 | AGCGGUGCUCCUGCGGGCCGA [hsa-miR-4746-3p] | 34.7 | 35.6 | -33
11 | AGCGUGGGAUGUCCAUGAAGUCAG [hsa-miR-6853-5p] | 71.7 | -26.6 | 90.6
12 | AGCUACAGUUACUUUUGCACCA [hsa-miR-548v] | 68.4 | -5.59 | -8.87
13 | AGCUACAUCUGGCUACUGGGU [hsa-miR-222-3p] | 71.6 | -5.3 | -9.89
14 | AGCUACAUUGUCUGCUGGGUUUC [hsa-miR-221-3p] | 59.9 | 4 | -17.8
15 | AGCUCCCUGAAUCCCUGUCCCAG [hsa-miR-7106-3p] | 74.6 | -19.5 | 32.5
16 | AGCUCGGUCUGAGGCCCCUCAGU [hsa-miR-423-3p] | 56.6 | 19.5 | -11.8
17 | AGCUCUAGAAAGAUUGUUGACC [hsa-miR-6502-5p] | 93.5 | -17.4 | 66.5
18 | AGCUCUGCUGCUCACUGGCAGU [hsa-miR-3194-3p] | 22.1 | 1.77 | 6.75
19 | AGCUGAGCUCCAUGGACGUGCAGU [hsa-miR-4663] | 67 | -21.4 | 16.3
20 | AGCUGGUAAAAUGGAACCAAAU [hsa-miR-133a-5p] | 30.7 | 7.21 | -4.69
21 | AGCUGGUGUUGUGAAUCAGGCCG [hsa-miR-138-5p] | 21.6 | 13.5 | -24.6
22 | AGCUGUAAUUAGUCAGUUUUCU [hsa-miR-1537-5p] | 117 | -20.9 | 31.8
23 | AGCUGUACCUGAAACCAAGCA [hsa-miR-4718] | 77.5 | 9.98 | -2.07
24 | AGCUGUCUGAAAAUGUCUU [hsa-miR-626] | 50.2 | 2.9 | 25.1
